What is called stoichiometry N is a count of units in the complex or per binding partner.

Holding throughout (assay): non-reducing SDS-PAGE with Western blot
Background: A western blot detects proteins with antibodies after separation by electrophoresis.

For assay [1], the target named is soluble truncated gp120 from the CRF02_AG isolate (Sgp120t-AG) (HIV-1 clade CRF02_AG).
Assay [2] deals with truncated gp120 from the HIV-1 clade B isolate (gp120t-B) (HIV-1 clade B).
For assay [3], the target named is truncated gp120 from the HIV-1 clade C isolate (gp120t-C) (HIV-1 clade C).
Assay [4] has as its target truncated gp120 from the HIV-1 clade J isolate (gp120t-J) (HIV-1 clade J).

For the substance “soluble truncated gp120 from the CRF02_AG isolate (Sgp120t-AG) (domain or fragment)”, in assay [1], the stoichiometry N came to 2.
As to “truncated gp120 from the HIV-1 clade B isolate (gp120t-B) (domain or fragment)”, the stoichiometry N in assay [2] amounted to 2.
The substance “truncated gp120 from the HIV-1 clade C isolate (gp120t-C) (domain or fragment)” returned a stoichiometry N in assay [3] of 2.
Substance “truncated gp120 from the HIV-1 clade J isolate (gp120t-J) (domain or fragment)” came in with a stoichiometry N in assay [4] of 2.

Values taken from paper PMC7349027.
